Here are results for 10 proteins from article PMC5035230 (Biochimica et biophysica acta, 2016).

B1: P453L-hE3 (pathogenic variant of human dihydrolipoamide dehydrogenase) (enzyme, UniProt P09622 36-509, looked up)
chain: ADQPIDADVTVIGSGPGGYVAAIKAAQLGFKTVCIEKNETLGGTCLNVGCIPSKALLNNSHYYHMAHGKDFASRGIEMSEVRLNLDKMMEQKSTAVKALTGGIAHLFKQNKVVHVNGYGKITGKNQVTATKADGGTQVIDTKNILIATGSEVTPFPGITIDEDTIVSSTGALSLKKVPEKMVVIGAGVIGVELGSVWQRLGADVTAVEFLGHVGGVGIDMEISKNFQRILQKQGFKFKLNTKVTGATKKSDGKIDVSIEAASGGKAEVITCDVLLVCIGRRPFTKNLGLEELGIELDPRGRIPVNTRFQTKIPNIYAIGDVVAGPMLAHKAEDEGIICVEGMAGGAVHIDYNCVPSVIYTHPEVAWVGKSEEQLKEEGIEYKVGKFPFAANSRAKTNADTDGMVKILGQKSTDRVLGAHILGPGAGEMVNEAALALEYGASCEDIARVCHAHLTLSEAFREANLAASFGKSINF
B2: I318T-hE3 (pathogenic variant of human dihydrolipoamide dehydrogenase) (enzyme, UniProt P09622 36-509, looked up)
chain: B1 chain with I318T, L453P
B3: I358T-hE3 (pathogenic variant of human dihydrolipoamide dehydrogenase) (enzyme, UniProt P09622 36-509, looked up)
chain: B1 chain with I358T, L453P
B4: I445M-hE3 (pathogenic variant of human dihydrolipoamide dehydrogenase) (enzyme, UniProt P09622 36-509, looked up)
chain: B1 chain with I445M, L453P
B5: G194C-hE3 (pathogenic variant of human dihydrolipoamide dehydrogenase) (enzyme, UniProt P09622 36-509, looked up)
chain: B1 chain with G194C, L453P
B6: R447G-hE3 (pathogenic variant of human dihydrolipoamide dehydrogenase) (enzyme, UniProt P09622 36-509, looked up)
chain: B1 chain with R447G, L453P
B7: K37E-hE3 (pathogenic variant of human dihydrolipoamide dehydrogenase) (enzyme, UniProt P09622 36-509, looked up)
chain: B1 chain with K37E, L453P
B8: R460G-hE3 (pathogenic variant of human dihydrolipoamide dehydrogenase) (enzyme, UniProt P09622 36-509, looked up)
chain: B1 chain with L453P, R460G
B9: E340K-hE3 (pathogenic variant of human dihydrolipoamide dehydrogenase) (enzyme, UniProt P09622 36-509, looked up)
chain: B1 chain with E340K, L453P
B10: D444V-hE3 (pathogenic variant of human dihydrolipoamide dehydrogenase) (enzyme, UniProt P09622 36-509, looked up)
chain: B1 chain with D444V, L453P

Substitutions are numbered along the chain they refer to. Names and notes keep the numbering of the source.

This data set deals with the molecule itself. Description: HDX-MS.
In the case of B1, the binding result was “binds”.

For the protein B2, the binding result is listed as “binds”. As for B3, the binding result was “binds”. Next, B4: “binds”; B5: “binds”. In the case of B6, the binding result is on record as “binds”. Next, B7: “binds”; B8: “binds”. The result for B9 reads “binds”; that for B10, “binds”.
